The subject of the test is IL-4 regulatory element (STAT6). The experiment in a line: Confirmation of transcriptional regulatory activity: IL-4 stimulation of reporter-transfected HeLa cells, HTRF ratio value. In kind it is cell-based, human. The conditions noted are these: HeLa cells transfected with reporter plasmid; IL-4 0-100 ng/ml, 3-48 hours. How it is done: HeLa cells (cells deposited with ATCC) were dispersed at a density of 1.2×10^5 cells/ml in a medium (MEM medium containing 10% fetal bovine serum, 100 units/ml penicillin G, 100 μg/ml streptomycin) and then put in a volume of 100 μl per well on a 96-well tissue culture plate. After 24 hours, 20 μg of the reporter plasmid prepared in Example 1, and 60 μl FuGENE6 (Roche), were added to 2 ml FBS-free medium, then left at room temperature for 20 minutes, and added in a volume of 5 μl to each well, followed by incubation for 24 hours to transfect the cells with the reporter plasmid.
After the culture supernatant of the cells was removed, 100 μl of IL-4 diluted with a medium was added at final concentrations of 0, 4, 20 and 100 ng/ml respectively to the respective wells and cultured for 3, 6, 24 and 48 hours. After culture, a cell lysis buffer (Tris buffered physiological saline containing 1% Triton X-100, 5 mM EDTA and a protease inhibitor cocktail) was added in a volume of 100 μl to each well and left at room temperature for 1 hour. […] After the reaction was finished, the fluorescence intensity of each well at 665 nm was measured with a time-resolved fluorescence microplate reader (Rubystar, BMG Labtechnologies). The measurement value was expressed as the ratio value to the fluorescence intensity of cryptate at 620 nm.

From patent US20090111098A1, “REPORTER GENE ASSAY” (Shionogi & Co., Ltd., priority 2005, published 2009) come the findings set out here.

B1: IL-4: cytokine that binds IL-4 receptors and activates JAK1/JAK3 and transcription factor STAT6 (protein, UniProt P05112 25-153, looked up)
Interleukin-4: HKCDITLQEIIKTLNSLTEQKTLCTELTVTDIFAASKNTTEKETFCRAATVLRQFYSHHEKDTRCLGATAQQFHRHKQLIRFLKRLDRNLWGLAGLNSCPVKEANQSTLENFLERLKTIMREKYSKCSS
For B1, the “increase in ratio value by stimulation with IL-4” value is given as “about 10 fold”.
